B1: baseplate wedge protein 2 (BW2) gp47 (natural protein, phage Mu, UniProt Q9T1V2 1-360, looked up)
chain: MAYSPPTLSSLIARTEQNIEQRLPGSWPQAREKTLSAIAYAQAGLAAGCHEHISWVGRQIIPSTADEDELLEHCRFWGVRRKQATAASGPLTVTTSAATTIPAGTRWQRADGVVYSLADTIVIDRAGTTEITVTALAAGEAGNTGENTLLTLITPVACVVSDAITVKGFSGGADIESAAELLSRLEYRVQYPPFGGNQFDYVRWAREVSGVTRAWCFPTWKGGGTVGVTFVMDNRSNIFPQPADVERVADYIAGHTDPITGLIVGQPDGVNVTVFAPKAKPVNPRIYISPKTAELKQAITNAINTMFFNEVMPGGALAPSRIIRAVAGVTGLDDFEVRFPTEIQRSENTELLTAGTIEWL
notes: baseplate wedge protein 2 gp47 of myophage Mu, as it stands in the virion; Two conformers (BW2-i, BW2-o) in each of the six wedges; Model deposited here; also called BW2-i; BW2-o; source: phage Mu virions grown on E. coli (ATCC 23724), purified (PEG 8000/NaCl precipitation, CsCl gradient)
B2: G(+) type fiber protein gp49 (natural protein, phage Mu, UniProt Q9T1V0 1-504, looked up)
chain: MFYIDNDSGVTVMPPVSAQRSAIVRWFSEGDGNNVITWPGMDWFNIVQAELLNTLEEAGIQPDKTKLNQLALSIKAIMSNNALLIKNNLSEIKTAGASAQRTARENLDIYDASLNKKGLVQLTSATDSPSETLAATAKAVKIAMDNANARLAKDRNGADIPNKPLFIQNLGLQETVNRARNAVQKNGDTLSGGLTFENDSILAWIRNTDWAKIGFKNDADSDTDSYMWFETGDNGNEYFKWRSKQSTTTKDLMNLKWDALSVLVNAIVNGEVISKSANGLRIAYGNYGFFIRNDGSNTYFMLTNSGDNMGTYNGLRPLWINNATGAVSMGRGLNVSGDTLSDRFAINSSNGMWIQMRDNNAIFGKNIVNTDSAQALLRQNHADRKFMIGGLGNKQFGIYMINNSRTANGTDGQAYMDNNGNWLCGAQVIPGNYANFDSRYVRDVRLGTQSLTGGLSRDYKAPSGHVITGFHTNGDWEMQGGDDKVYIRPVQKNINGTWYNVASA
notes: G(+) type tail fiber protein gp49 of myophage Mu, as it stands in the virion; only the N-terminus was modelled; Trimer; six fibers in the baseplate; Model deposited here; source: phage Mu virions grown on E. coli (ATCC 23724), purified (PEG 8000/NaCl precipitation, CsCl gradient)
B3: tail sheath protein gp39 (natural protein, phage Mu, UniProt P79678 1-495, looked up)
chain: MSDISFNAIPSDVRVPLTYIEFDNSNAVSGTPAPRQRVLMFGQSGSKASAAPNVPVRIRSGSQASAAFGQGSMLALMADAFLNANRVAELWCIPQGNGTGNAAVGEISLSGTAGENGSLVTYIAGQRLAVSVAAGATGAALADLLVARIKGQPDLPVTAEVRADSGDDDTHADVVLSAKFTGALSAVDVRWNYYAGETTPYGIITAFKAASGKNGNPDISASIAGMGDLQYKYIVMPYTDEPNLNLLRTELQERWGPVNQADGFAVTVLSGTYGDISTFGVSRNDHLISCMGIAGAPEPSYLYAATLCAVASQALSIDPARPLQTLTLPGRMPPAVGDRFTWSERNALLFDGISTFNVNDGGEMQIERMITMYRTNKYGDSDPSYLNVNTIATLSYLRYSLRTRITQKFPNYKLASDGTRFATGQAVVTPSVIKTELLALFEEWENAGLVEDFDTFKEELYVARNKDDKDRLDVLCGPNLINQFRIFAAQVQFIL
notes: tail sheath protein gp39 of myophage Mu, as it stands in the virion; Hexameric rings, 30 of them stacked in the tail; Model deposited here; source: phage Mu virions grown on E. coli (ATCC 23724), purified (PEG 8000/NaCl precipitation, CsCl gradient)
B4: hub protein gp44 (natural protein, phage Mu, UniProt P08558 1-379, looked up)
chain: MSNTVTLRADGRLFTGWTSVSVTRSIESVAGYFELGVNVPPGTDLSGLAPGKKFTLEIGGQIVCTGYIDSRRRQMTADSMKITVAGRDKTADLIDCAAVYSGGQWKNRTLEQIARDLCAPYGVTVRWELSDKESSAAFPGFTLDHSETVYEALVRASRARGVLMTSNAAGELVFSRAASTATDELVLGENLLTLDFEEDFRDRFSEYTVKGYARANGAEGDDIDAKSIVSRKGTATDSDVTRYRPMIIIADSKITAKDAQARALREQRRRLAKSITFEAEIDGWTRKDGQLWMPNLLVTIDASKYAIKTTELLVSKVTLILNDQDGLKTRVSLAPREGFLVPVESDRKNRKGGDSNGGIDALVEDYYRRHPEKTPPWKE
notes: baseplate hub protein gp44 of myophage Mu, as it stands in the virion; Trimer; Model deposited here; source: phage Mu virions grown on E. coli (ATCC 23724), purified (PEG 8000/NaCl precipitation, CsCl gradient)
B5: tail tube protein gp40 (natural protein, phage Mu, UniProt P79679 1-118, looked up)
chain: MAGNQRQGVAFIRVNGMELESMEGASFTPSGITREEVTGSRVYGWKGKPRAAKVECKIPGGGPIGLDEIIDWENITVEFQADTGETWMLANAWQADEPKNDGGEISLVLMAKQSKRIA
notes: tail tube protein gp40 of myophage Mu, as it stands in the virion; Hexameric rings, 30 of them stacked in the tail; Model deposited here; source: phage Mu virions grown on E. coli (ATCC 23724), purified (PEG 8000/NaCl precipitation, CsCl gradient)
B6: tube initiator protein gp43 (natural protein, phage Mu, UniProt P08557 1-495, looked up)
chain: MFEDALNAVNAVRDKTGGGRKTTGKGTFRNVPFLVIEEQKQAGGRRLVKREYPLRDTGGVNDLGKKLRSRTFSACILNSNAETARDEAGALMDALDAPGSGELVHPDFGTVDVMVDSWECRTKADELNYYAFTVTVYPSLQDTAPDAETDTSAAVPAQAVAVTGSLGDTLSSVWQTVKDGTAAATAVMEAVTGVIDDISDAVDNLGVTQTVSGLMGSLSAMKGSVTSLINQPAMLASSLMGALSGVSSLCDTRTAFSTWNRLAQRFERRHAATAGRQGTITTSYNSPVAEKNIATLNYVMLAAAQTYRAEAASQALTAALDFSRRMDNAARAPVLDAPSTTTGTASGASSTSATVTQGQLQLTAITPDGGFSQVSFSDSGTATPPVFESVSDIEKTTAMLGAALDSVILTASEQGFSTDSVQLTQLRLLVVADLEKRGLQLAGSESHHLPETLPAMVALYRFTGNSRNWQRLARRNGISNPLFVPGGVSIEVINE
notes: tube initiator protein gp43 (N protein, DNA circularization protein) of myophage Mu, as it stands in the virion; Hexamer; Model deposited here; also called N protein; DNA circularization protein; source: phage Mu virions grown on E. coli (ATCC 23724), purified (PEG 8000/NaCl precipitation, CsCl gradient)
B7: portal protein gp29 (natural protein, phage Mu, UniProt Q9T1W5 1-512, looked up)
chain: MGRILDISGQPFDFDDEMQSRSDELAMVMKRTQEHPSSGVTPNRAAQMLRDAERGDLTAQADLAFDMEEKDTHLFSELSKRRLAIQALEWRIAPARDASAQEKKDADMLNEYLHDAAWFEDALFDAGDAILKGYSMQEIEWGWLGKMRVPVALHHRDPALFCANPDNLNELRLRDASYHGLELQPFGWFMHRAKSRTGYVGTNGLVRTLIWPFIFKNYSVRDFAEFLEIYGLPMRVGKYPTGSTNREKATLMQAVMDIGRRAGGIIPMGMTLDFQSAADGQSDPFMAMIGWAEKAISKAILGGTLTTEAGDKGARSLGEVHDEVRREIRNADVGQLARSINRDLIYPLLALNSDSTIDINRLPGIVFDTSEAGDITALSDAIPKLAAG
notes: portal protein gp29 of myophage Mu, as it stands in the virion; Dodecamer; Model deposited here; source: phage Mu virions grown on E. coli (ATCC 23724), purified (PEG 8000/NaCl precipitation, CsCl gradient); copies: 12

Experiments:
Experiment in all cases: cryo-EM structure; purified phage Mu virions in the extended state (native phage) in phage buffer (10 mM MgCl2, 5 mM NaCl, 10 mM Tris-HCl, pH 7.4); icosahedral, symmetry-mismatch and local reconstruction; 3.2 Å (3-fold capsid), 3.4 Å (portal-adaptor), 3.5 Å (terminator-tail), 3.3 Å (baseplate)
[1] = target: tape measure protein (TMP) gp42 (phage Mu)
[2] = target: major capsid protein (MCP) gp34 (phage Mu)
[3] = target: adaptor protein gp36 (phage Mu)
[4] = target: tail terminator protein gp37 (phage Mu)
[5] = target: B6; conditions: both partners purified
[6] = target: the molecule itself
tail sheath protein gp39 = target: B3; conditions: both partners purified

Q: “tape measure protein (TMP) gp42 (natural protein)” was tested. Which stoichiometry N [1] did it give?
A: 3

Q: Which stoichiometry N [2] does the source give for “major capsid protein (MCP) gp34 (natural protein)” here?
A: 415

Q: How did the stoichiometry N [3] turn out when adaptor protein gp36 (natural protein) was run?
A: 12

Q: “tail terminator protein gp37 (natural protein)” was tested. Which stoichiometry N [4] did it give?
A: 6

Q: Does B1 bind [5]?
A: binds

Q: Does B1 bind [6]?
A: binds

Q: B2 was tested. Which “stoichiometry N” value [6] did it give?
A: 3

Q: With B3 as the molecule, how does the “stoichiometry N” value [6] read?
A: 6

Q: For B4, which “stoichiometry N” value [6] is on record?
A: 3

Q: Which results are given for B5?
A: binding result (tail sheath protein gp39): binds; stoichiometry N [6]: 6

Q: How did the “stoichiometry N” value [6] turn out when B6 was run?
A: 6

Q: How did the “stoichiometry N” value [6] turn out when B7 was run?
A: 12

Reference: article PMC11915804, “In situ structures of the contractile nanomachine myophage Mu in both its extended and contracted states” (Journal of Virology, 2025)
